# Laboratory results taken from US20140080757A1 (ZEALAND PHARMA A S, published 2014).
# Numbered stars: 1 amine (or outer) side, 2 acyl side, 3 side chain; on linkers, the order of the positions; unused ones are H or OH. Side chains are listed from the residue outwards. * marks the point of attachment. γGlu = O=C(O)[C@H](CCC(=O)[*:2])N[*:1]; Palmitoyl = CCCCCCCCCCCCCCCC(=O)*
# T1: endogenous GLP-1 receptor of a murine insulinoma cell line (murine, UniProt O35659 22-463)
# T1 sequence (looked up): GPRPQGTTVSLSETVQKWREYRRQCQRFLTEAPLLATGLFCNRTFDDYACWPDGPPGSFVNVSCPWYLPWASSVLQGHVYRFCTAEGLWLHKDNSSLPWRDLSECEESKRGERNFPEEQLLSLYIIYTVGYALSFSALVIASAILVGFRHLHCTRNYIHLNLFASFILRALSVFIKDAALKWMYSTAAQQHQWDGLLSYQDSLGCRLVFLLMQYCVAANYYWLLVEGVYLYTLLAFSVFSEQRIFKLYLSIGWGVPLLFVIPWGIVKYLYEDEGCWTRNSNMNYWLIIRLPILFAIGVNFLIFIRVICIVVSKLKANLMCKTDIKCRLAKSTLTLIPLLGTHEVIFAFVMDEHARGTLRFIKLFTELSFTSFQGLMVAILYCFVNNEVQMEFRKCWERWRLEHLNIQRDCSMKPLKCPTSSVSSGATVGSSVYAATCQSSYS
# How the values were obtained:
# Experiment in all cases: cell-based or functional assay
# [1] = molecular target: human glucagon receptor (Glucagon-R) (human, UniProt P47871 26-477)
# [2] = molecular target: human glucagon-like peptide 1 receptor (GLP-1R) (human, UniProt P43220 24-463)
# [3] = molecular target: T1, endogenous GLP-1 receptor of a murine …
# [4] = molecular target: endogenous glucagon receptor of primary rat hepatocytes (rat, UniProt P30082 27-485)
# endogenous glucagon receptor of primary rat hepatocytes, sequence (P30082 27-485): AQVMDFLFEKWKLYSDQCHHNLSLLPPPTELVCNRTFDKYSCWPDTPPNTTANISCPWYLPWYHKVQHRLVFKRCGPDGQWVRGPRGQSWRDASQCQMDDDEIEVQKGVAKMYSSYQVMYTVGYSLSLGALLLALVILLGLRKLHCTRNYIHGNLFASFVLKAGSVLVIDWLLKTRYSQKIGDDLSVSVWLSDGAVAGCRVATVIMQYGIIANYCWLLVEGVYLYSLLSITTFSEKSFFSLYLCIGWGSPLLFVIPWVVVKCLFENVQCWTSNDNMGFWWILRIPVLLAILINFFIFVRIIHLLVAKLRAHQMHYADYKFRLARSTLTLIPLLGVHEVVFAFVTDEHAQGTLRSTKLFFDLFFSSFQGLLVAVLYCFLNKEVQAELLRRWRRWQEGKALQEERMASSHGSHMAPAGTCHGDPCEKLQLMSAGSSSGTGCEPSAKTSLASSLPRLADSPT
# human glucagon receptor (Glucagon-R), sequence (P47871 26-477): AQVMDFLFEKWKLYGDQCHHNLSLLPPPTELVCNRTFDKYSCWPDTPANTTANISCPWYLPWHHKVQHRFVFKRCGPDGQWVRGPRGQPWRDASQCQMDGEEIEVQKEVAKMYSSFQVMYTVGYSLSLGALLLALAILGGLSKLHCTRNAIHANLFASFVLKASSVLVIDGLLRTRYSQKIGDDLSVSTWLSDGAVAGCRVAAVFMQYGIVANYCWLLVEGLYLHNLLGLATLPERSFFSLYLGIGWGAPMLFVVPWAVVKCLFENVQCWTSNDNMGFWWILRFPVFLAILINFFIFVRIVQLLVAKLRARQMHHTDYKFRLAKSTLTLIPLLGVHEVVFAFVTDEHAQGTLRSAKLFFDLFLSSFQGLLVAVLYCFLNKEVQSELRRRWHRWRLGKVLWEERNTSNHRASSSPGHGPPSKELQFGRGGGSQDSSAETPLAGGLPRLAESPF
Binder,EC50 hGCGR CHO-K1 [nM] (cAMP) [1],EC50 hGLP-1R CHO-K1 [nM] (cAMP) [2],Ratio GLP-1/Glucagon (EC50 hGLP-1R / EC50 hGCGR) [2] [ratio],EC50 GLP-1R (murine insulinoma cells) [nM] (cAMP) [3],EC50 GLP-1R Rat hepat. [nM] (inhibition of glycogen synthesis) [4]
H-HSQGTFTSDYSKYLDEK([γGlu-Palmitoyl])AAHEFVEWLESA-NH2 (SMILES CCCCCCCCCCCCCCCC(=O)N[C@@H](CCC(=O)NCCCC[C@H](NC(=O)[C@H](CCC(=O)O)NC(=O)[C@H](CC(=O)O)NC(=O)[C@H](CC(C)C)NC(=O)[C@H](Cc1ccc(O)cc1)NC(=O)[C@H](CCCCN)NC(=O)[C@H](CO)NC(=O)[C@H](Cc1ccc(O)cc1)NC(=O)[C@H](CC(=O)O)NC(=O)[C@H](CO)NC(=O)[C@@H](NC(=O)[C@H](Cc1ccccc1)NC(=O)[C@@H](NC(=O)CNC(=O)[C@H](CCC(N)=O)NC(=O)[C@H](CO)NC(=O)[C@@H](N)Cc1c[nH]cn1)[C@@H](C)O)[C@@H](C)O)C(=O)N[C@@H](C)C(=O)N[C@@H](C)C(=O)N[C@@H](Cc1c[nH]cn1)C(=O)N[C@@H](CCC(=O)O)C(=O)N[C@@H](Cc1ccccc1)C(=O)N[C@H](C(=O)N[C@@H](CCC(=O)O)C(=O)N[C@@H](Cc1c[nH]c2ccccc12)C(=O)N[C@@H](CC(C)C)C(=O)N[C@@H](CCC(=O)O)C(=O)N[C@@H](CO)C(=O)N[C@@H](C)C(N)=O)C(C)C)C(=O)O) [Compound 10],0.23,0.23,1,0.33,0.04
H-HSQGTFTSDYSKYLDSK([γGlu-Palmitoyl])AAEDFVEWLLRA-NH2 (SMILES CCCCCCCCCCCCCCCC(=O)N[C@@H](CCC(=O)NCCCC[C@H](NC(=O)[C@H](CO)NC(=O)[C@H](CC(=O)O)NC(=O)[C@H](CC(C)C)NC(=O)[C@H](Cc1ccc(O)cc1)NC(=O)[C@H](CCCCN)NC(=O)[C@H](CO)NC(=O)[C@H](Cc1ccc(O)cc1)NC(=O)[C@H](CC(=O)O)NC(=O)[C@H](CO)NC(=O)[C@@H](NC(=O)[C@H](Cc1ccccc1)NC(=O)[C@@H](NC(=O)CNC(=O)[C@H](CCC(N)=O)NC(=O)[C@H](CO)NC(=O)[C@@H](N)Cc1c[nH]cn1)[C@@H](C)O)[C@@H](C)O)C(=O)N[C@@H](C)C(=O)N[C@@H](C)C(=O)N[C@@H](CCC(=O)O)C(=O)N[C@@H](CC(=O)O)C(=O)N[C@@H](Cc1ccccc1)C(=O)N[C@H](C(=O)N[C@@H](CCC(=O)O)C(=O)N[C@@H](Cc1c[nH]c2ccccc12)C(=O)N[C@@H](CC(C)C)C(=O)N[C@@H](CC(C)C)C(=O)N[C@@H](CCCNC(=N)N)C(=O)N[C@@H](C)C(N)=O)C(C)C)C(=O)O) [Compound 7],0.45,0.27,0.6,0.84,1.92
H-HSQGTFTSDYSKYLDSK([γGlu-Palmitoyl])AAHDFVEWLLR-OH (SMILES CCCCCCCCCCCCCCCC(=O)N[C@@H](CCC(=O)NCCCC[C@H](NC(=O)[C@H](CO)NC(=O)[C@H](CC(=O)O)NC(=O)[C@H](CC(C)C)NC(=O)[C@H](Cc1ccc(O)cc1)NC(=O)[C@H](CCCCN)NC(=O)[C@H](CO)NC(=O)[C@H](Cc1ccc(O)cc1)NC(=O)[C@H](CC(=O)O)NC(=O)[C@H](CO)NC(=O)[C@@H](NC(=O)[C@H](Cc1ccccc1)NC(=O)[C@@H](NC(=O)CNC(=O)[C@H](CCC(N)=O)NC(=O)[C@H](CO)NC(=O)[C@@H](N)Cc1c[nH]cn1)[C@@H](C)O)[C@@H](C)O)C(=O)N[C@@H](C)C(=O)N[C@@H](C)C(=O)N[C@@H](Cc1c[nH]cn1)C(=O)N[C@@H](CC(=O)O)C(=O)N[C@@H](Cc1ccccc1)C(=O)N[C@H](C(=O)N[C@@H](CCC(=O)O)C(=O)N[C@@H](Cc1c[nH]c2ccccc12)C(=O)N[C@@H](CC(C)C)C(=O)N[C@@H](CC(C)C)C(=O)N[C@@H](CCCNC(=N)N)C(=O)O)C(C)C)C(=O)O) [Compound 9],0.25,0.35,1.4,1.02,0.37
H-HSQGTFTSDYSRYLDSK([γGlu-Palmitoyl])AAEDFVEWLLRA-NH2 (SMILES CCCCCCCCCCCCCCCC(=O)N[C@@H](CCC(=O)NCCCC[C@H](NC(=O)[C@H](CO)NC(=O)[C@H](CC(=O)O)NC(=O)[C@H](CC(C)C)NC(=O)[C@H](Cc1ccc(O)cc1)NC(=O)[C@H](CCCNC(=N)N)NC(=O)[C@H](CO)NC(=O)[C@H](Cc1ccc(O)cc1)NC(=O)[C@H](CC(=O)O)NC(=O)[C@H](CO)NC(=O)[C@@H](NC(=O)[C@H](Cc1ccccc1)NC(=O)[C@@H](NC(=O)CNC(=O)[C@H](CCC(N)=O)NC(=O)[C@H](CO)NC(=O)[C@@H](N)Cc1c[nH]cn1)[C@@H](C)O)[C@@H](C)O)C(=O)N[C@@H](C)C(=O)N[C@@H](C)C(=O)N[C@@H](CCC(=O)O)C(=O)N[C@@H](CC(=O)O)C(=O)N[C@@H](Cc1ccccc1)C(=O)N[C@H](C(=O)N[C@@H](CCC(=O)O)C(=O)N[C@@H](Cc1c[nH]c2ccccc12)C(=O)N[C@@H](CC(C)C)C(=O)N[C@@H](CC(C)C)C(=O)N[C@@H](CCCNC(=N)N)C(=O)N[C@@H](C)C(N)=O)C(C)C)C(=O)O) [Compound 6],0.46,0.35,0.76,1.14,2.87

# Other lines, results leading:
EC50 hGCGR CHO-K1 [nM] (cAMP) [1],EC50 hGLP-1R CHO-K1 [nM] (cAMP) [2],Ratio GLP-1/Glucagon (EC50 hGLP-1R / EC50 hGCGR) [2] [ratio],EC50 GLP-1R (murine insulinoma cells) [nM] (cAMP) [3],EC50 GLP-1R Rat hepat. [nM] (inhibition of glycogen synthesis) [4],Binder
0.43,0.37,0.86,1.62,0.24,H-HSQGTFTSDYSRYLDSK([γGlu-Palmitoyl])AAHDFVEWLLSA-NH2 (SMILES CCCCCCCCCCCCCCCC(=O)N[C@@H](CCC(=O)NCCCC[C@H](NC(=O)[C@H](CO)NC(=O)[C@H](CC(=O)O)NC(=O)[C@H](CC(C)C)NC(=O)[C@H](Cc1ccc(O)cc1)NC(=O)[C@H](CCCNC(=N)N)NC(=O)[C@H](CO)NC(=O)[C@H](Cc1ccc(O)cc1)NC(=O)[C@H](CC(=O)O)NC(=O)[C@H](CO)NC(=O)[C@@H](NC(=O)[C@H](Cc1ccccc1)NC(=O)[C@@H](NC(=O)CNC(=O)[C@H](CCC(N)=O)NC(=O)[C@H](CO)NC(=O)[C@@H](N)Cc1c[nH]cn1)[C@@H](C)O)[C@@H](C)O)C(=O)N[C@@H](C)C(=O)N[C@@H](C)C(=O)N[C@@H](Cc1c[nH]cn1)C(=O)N[C@@H](CC(=O)O)C(=O)N[C@@H](Cc1ccccc1)C(=O)N[C@H](C(=O)N[C@@H](CCC(=O)O)C(=O)N[C@@H](Cc1c[nH]c2ccccc12)C(=O)N[C@@H](CC(C)C)C(=O)N[C@@H](CC(C)C)C(=O)N[C@@H](CO)C(=O)N[C@@H](C)C(N)=O)C(C)C)C(=O)O) [Compound 12]
0.98,0.51,0.52,1.06,0.67,HXQGTFTSDYSKYLDSXAAHDFVEWLLSA (Aib at position 2; Lys 17 K(Hexadecanoyl-isoGlu); C-terminal -OH) [Compound 13]
0.29,0.41,1.41,0.95,1.1,H-HSQGTFTSDYSKYLDSK([γGlu-Palmitoyl])AAHDFVEWLLS-NH2 (SMILES CCCCCCCCCCCCCCCC(=O)N[C@@H](CCC(=O)NCCCC[C@H](NC(=O)[C@H](CO)NC(=O)[C@H](CC(=O)O)NC(=O)[C@H](CC(C)C)NC(=O)[C@H](Cc1ccc(O)cc1)NC(=O)[C@H](CCCCN)NC(=O)[C@H](CO)NC(=O)[C@H](Cc1ccc(O)cc1)NC(=O)[C@H](CC(=O)O)NC(=O)[C@H](CO)NC(=O)[C@@H](NC(=O)[C@H](Cc1ccccc1)NC(=O)[C@@H](NC(=O)CNC(=O)[C@H](CCC(N)=O)NC(=O)[C@H](CO)NC(=O)[C@@H](N)Cc1c[nH]cn1)[C@@H](C)O)[C@@H](C)O)C(=O)N[C@@H](C)C(=O)N[C@@H](C)C(=O)N[C@@H](Cc1c[nH]cn1)C(=O)N[C@@H](CC(=O)O)C(=O)N[C@@H](Cc1ccccc1)C(=O)N[C@H](C(=O)N[C@@H](CCC(=O)O)C(=O)N[C@@H](Cc1c[nH]c2ccccc12)C(=O)N[C@@H](CC(C)C)C(=O)N[C@@H](CC(C)C)C(=O)N[C@@H](CO)C(N)=O)C(C)C)C(=O)O) [Compound 8]
